Publication PMC5636753, “Structural basis for DAXX interaction with ATRX” (Protein & Cell, 2017)
Read-outs that look alike come from different tables or passages of the source.

T1: ATRX_(1,188–1,326) (UniProt P46100 1188-1326)
T1 construct: Alpha-thalassemia/mental retardation syndrome X-linked protein (ATRX), residues 1188-1326
T1 sequence (looked up): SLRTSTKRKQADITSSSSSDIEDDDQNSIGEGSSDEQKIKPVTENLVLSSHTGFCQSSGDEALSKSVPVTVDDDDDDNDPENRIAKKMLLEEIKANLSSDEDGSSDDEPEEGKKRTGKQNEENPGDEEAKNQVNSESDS

T2: DAXX helical bundle (DHB) domain, DAXX_(55–144) (UniProt Q9UER7 55-144)
T2 chain: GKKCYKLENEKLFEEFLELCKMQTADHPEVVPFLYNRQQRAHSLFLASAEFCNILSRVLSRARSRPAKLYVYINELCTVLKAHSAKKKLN

T3: DAXX Y124A (Homo sapiens)
T3 chain: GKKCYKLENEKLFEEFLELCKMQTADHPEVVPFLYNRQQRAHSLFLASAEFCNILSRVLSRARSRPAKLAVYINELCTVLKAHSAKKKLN

T4: DAXX V84A (Homo sapiens)
T4 chain: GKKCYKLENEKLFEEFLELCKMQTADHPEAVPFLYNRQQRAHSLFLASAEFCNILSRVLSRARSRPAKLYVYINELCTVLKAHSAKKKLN

T5: DAXX F87A (Homo sapiens)
T5 chain: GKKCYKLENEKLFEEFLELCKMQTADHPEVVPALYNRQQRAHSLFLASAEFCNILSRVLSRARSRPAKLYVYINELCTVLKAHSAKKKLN

T6: DAXX I127A (Homo sapiens)
T6 chain: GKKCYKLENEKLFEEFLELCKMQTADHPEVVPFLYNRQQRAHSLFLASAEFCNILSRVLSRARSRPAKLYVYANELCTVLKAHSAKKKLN

T7: DAXX V125A (Homo sapiens)
T7 chain: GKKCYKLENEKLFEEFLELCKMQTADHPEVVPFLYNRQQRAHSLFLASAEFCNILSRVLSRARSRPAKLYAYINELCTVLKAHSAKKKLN


Experiments:
ATRX_(1,188–1,326) = biological target: T1, ATRX_(1,188–1,326); experiment: ITC; isothermal titration calorimetry of ATRX fragments with DAXXDHB; conditions not shown (methods in the supplement); conditions: both partners purified
[1] = biological target: T2, DAXX helical bundle (DHB) domain, …; experiment: ITC
[2] = biological target: DAXX helical bundle (DHB) domain, DAXX_(55–144) (UniProt Q9UER7); experiment: ITC; isothermal titration calorimetry of ATRX fragments with DAXXDHB; conditions not shown (methods in the supplement)
[3] = biological target: T2, DAXX helical bundle (DHB) domain, …; experiment: ITC
DAXX Y124A = biological target: T3, DAXX Y124A; experiment: ITC
DAXX V84A = biological target: T4, DAXX V84A; experiment: ITC
DAXX F87A = biological target: T5, DAXX F87A; experiment: ITC
DAXX I127A = biological target: T6, DAXX I127A; experiment: ITC
DAXX V125A = biological target: T7, DAXX V125A; experiment: ITC

Row | Binder | Kd [1] | other results
1 | DAXX helical bundle (DHB) domain, DAXX_(55–144) (domain or fragment, UniProt Q9UER7 55-144, looked up, death-domain associated protein (DAXX), N-terminal DAXX helical bundle (DHB) domain; model of the crystal covers residues 57-141; Limits 55-144 are printed for the mutagenesis panel; Crystals were selenomethionine-substituted; also called DAXXDHB; DAXX DHB) GKKCYKLENEKLFEEFLELCKMQTADHPEVVPFLYNRQQRAHSLFLASAEFCNILSRVLSRARSRPAKLYVYINELCTVLKAHSAKKKLN | – | Kd (ATRX_(1,188–1,326)): 160 nM
2 | ENRIAKKMLLEEIKANLSSDED (domain or fragment) [ATRXDBM with deletion of N-terminal eight residues] | 10300 nM | fold decrease in affinity against ATRXDBM [2]: 60 fold
3 | AAAAANDPENRIAKKMLLEEIKANLSSDED [ATRX 1,260–1,289 M1 (D1260A/D1261A/D1262A/D1263A/D1264A)] | 850 nM | –
4 | DDDDDNDPENRIAKKMLLEEIKANLSSDED (domain or fragment) [DAXX-binding motif of ATRX, ATRX_(1,260–1,289)] | 160 nM | –
5 | DDDDDNAPANRIAKKMLLEEIKANLSSDED [ATRX 1,260–1,289 M2 (D1266A/E1268A)] | 1750 nM | –
6 | ATRX_(1,253–1,326) (domain or fragment) SVPVTVDDDDDDNDPENRIAKKMLLEEIKANLSSDEDGSSDDEPEEGKKRTGKQNEENPGDEEAKNQVNSESDS | 160 nM | Kd [3]: 170 nM; Kd (DAXX Y124A): 5920 nM; Kd (DAXX V84A): 2040 nM; Kd (DAXX F87A): 2190 nM; Kd (DAXX I127A): 810 nM; Kd (DAXX V125A): 280 nM
7 | ATRX L1276R (protein) SVPVTVDDDDDDNDPENRIAKKMRLEEIKANLSSDEDGSSDDEPEEGKKRTGKQNEENPGDEEAKNQVNSESDS | 73500 nM | –
8 | ATRX L1276A/I1280A (protein) SVPVTVDDDDDDNDPENRIAKKMALEEAKANLSSDEDGSSDDEPEEGKKRTGKQNEENPGDEEAKNQVNSESDS | 12000 nM | –
9 | ATRX I1280R (protein) SVPVTVDDDDDDNDPENRIAKKMLLEERKANLSSDEDGSSDDEPEEGKKRTGKQNEENPGDEEAKNQVNSESDS | 34800 nM | –
10 | ATRX L1276A (protein) SVPVTVDDDDDDNDPENRIAKKMALEEIKANLSSDEDGSSDDEPEEGKKRTGKQNEENPGDEEAKNQVNSESDS | 8330 nM | –
11 | ATRX A1272R (protein) SVPVTVDDDDDDNDPENRIRKKMLLEEIKANLSSDEDGSSDDEPEEGKKRTGKQNEENPGDEEAKNQVNSESDS | 1040 nM | –
12 | ATRX I1280A (protein) SVPVTVDDDDDDNDPENRIAKKMLLEEAKANLSSDEDGSSDDEPEEGKKRTGKQNEENPGDEEAKNQVNSESDS | 400 nM | –
13 | ATRX L1276Q (protein) SVPVTVDDDDDDNDPENRIAKKMQLEEIKANLSSDEDGSSDDEPEEGKKRTGKQNEENPGDEEAKNQVNSESDS | 43300 nM | –
14 | ATRX L1277R (protein) SVPVTVDDDDDDNDPENRIAKKMLREEIKANLSSDEDGSSDDEPEEGKKRTGKQNEENPGDEEAKNQVNSESDS | 970 nM | –
15 | ATRX I1280Q (protein) SVPVTVDDDDDDNDPENRIAKKMLLEEQKANLSSDEDGSSDDEPEEGKKRTGKQNEENPGDEEAKNQVNSESDS | 7350 nM | –
